PMC10827111 (bioRxiv, 2024)

What was measured:
Test in all cases: ELISA
MERS-CoV S2 subdomain = MERS-CoV S2 subdomain (MERS-CoV, strain ; stand-in …, UniProt K0BRG7)
[1] = molecular target: SARS-CoV-2 S2 subdomain (Sino Biological) (SARS-CoV-2 (Wuhan-Hu-1 reference), UniProt P0DTC2)
HCoV-OC43 S-2P = HCoV-OC43 S-2P (HCoV-OC43 (strain ; numbering …, UniProt P36334, stabilised)

Measured: binding result

B1: antibody 54043-5 (IgG) (antibody, V domains shown)
VH: QVQLQESGPGLVKPSQTLSLTCTVSGDSISNSSYYWSWIRQYPSRRLEWIGYIYYNGRTYYNPSLNSRLSISLDTSKNHFSLKLSSLTAADTALYYCARGFLGYCAGGSCFLNWLDPWGQGTLVTVSS
VL: EIIMTQSPATLSVSPGGRATLSCRASQSVSNNLAWYQQKPGQTPRLLIHGASTRATGIPARFSGSGSGTEFTLTISSLQSEDFAVYYCHQYHNWLLTFGGGTKVEIK
binds: all assays above
